From patent US12630630 (SHANGHAI HENLIUS BIOTECH, dated 2026)

target: T1, CD47 on human cells (Raji, Jurkat, red blood cells) (human, UniProt Q08722 19-311); assay: flow cytometry competition: antibody and a fixed concentration of biotin-human SIRPα-Fc co-incubated with CD47-expressing cells (Jurkat in Example 2; the legend also names Raji), streptavidin-PE
T1 construct: Endogenous CD47 on Raji, Jurkat and red blood cells; also called IAP; MER6
Protocol: Example 2. […] CD47-expressing cells (Jurkat) (1E5 cells/well) were washed and resuspended in FACS buffer (1×PBS with 2% FBS). […] Flow cytometric analyses were performed using the Cytomics FC 500 (Beckman Coulter Inc.).
IgG isotype control (an anti-PD1 antibody) were used as a negative control.

Binder | IC50 (read off the curve) [mg/L]
Clone M1 (antibody, human IgG4 S228P, lambda, V domains shown, also called antibody clone M1) VH: QVQLQQWGAGLLKPSETLSLTCAVYGGSFSGYYWSWIRQPPGKGLEWIGEINHSGSTNYNPSLKSRVTISVDTSKNQFSLRLSSVTAADTAMYYCARFTGRPYYGMDVWGQGTTVTVSS VL: LSYELTQPPSVSATPGQRVTISCSGSESNIGSHKVKWYQQFAGAAPRLLIHGNDQRRSGVPDRFSGSKSGTSASLAISGLQSEDEADYYCAAWDDSLNGRVFGGGTKLTVLG | ~1
Clone M1 #46 (antibody, human IgG4 S228P, lambda, V domains shown) VH: QVQLQQWGAGLLKPSETLSLTCAVYGGSFSGYYWSWIRQPPGKGLEWIGEINHSGSTNYNPSLKSRVTISVDTSKNQFSLRLSSVTAADTAMYYCARFSGRPYYGMDVWGQGTTVTVSS VL: LSYELTQPPSVSATPGQRVTISCSGSESNIGSHKVKWYQQFAGAAPRLLIHGNDQRRSGVPDRFSGSKSGTSASLAISGLQSEDEADYYCAAWDDSLYGRVFGGGTKLTVLG | ~0.2
Clone M1 #21 (antibody, human IgG4 S228P, lambda, V domains shown) VH: QVQLQQWGAGLLKPSETLSLTCAVYGGSFSGYYWSWIRQPPGKGLEWIGEINQSGSTNYNPSLKSRVTISVDTSKNQFSLRLSSVTAADTAMYYCARFTGRPYYGMDVWGQGTTVTVSS VL: LSYELTQPPSVSATPGQRVTISCSGSESNIGSHKVKWYQQFAGAAPRLLIHGNDQRFSGVPDRFSGSKSGTSASLAISGLQSEDEADYYCAAWDDSLYGRVFGGGTKLTVLG | ~0.08
Clone M1 #11 (antibody, human IgG4 S228P, lambda, V domains shown) VH: QVQLQQWGAGLLKPSETLSLTCAVYGGSFSGYYWSWIRQPPGKGLEWIGEINHSGSTNYNPSLKSRVTISVDTSKNQFSLRLSSVTAADTAMYYCARFHGRPYYGMDVWGQGTTVTVSS VL: LSYELTQPPSVSATPGQRVTISCSGSESNIGSHKVKWYQQFAGAAPRLLIHGNDQRRRGVPDRFSGSKSGTSASLAISGLQSEDEADYYCAAWDDSLYGRVFGGGTKLTVLG | ~0.06
